From patent US20240425606A1, “ANTI-IL-11RA ANTIBODIES” (Lassen Therapeutics 1, Inc., priority 2021, published 2024)
Entries after “also recorded” stand apart in the source; their conditions may differ.

T1: hIL-1 IR (Homo sapiens, UniProt Q14626)
T1 sequence (Q14626 23-422): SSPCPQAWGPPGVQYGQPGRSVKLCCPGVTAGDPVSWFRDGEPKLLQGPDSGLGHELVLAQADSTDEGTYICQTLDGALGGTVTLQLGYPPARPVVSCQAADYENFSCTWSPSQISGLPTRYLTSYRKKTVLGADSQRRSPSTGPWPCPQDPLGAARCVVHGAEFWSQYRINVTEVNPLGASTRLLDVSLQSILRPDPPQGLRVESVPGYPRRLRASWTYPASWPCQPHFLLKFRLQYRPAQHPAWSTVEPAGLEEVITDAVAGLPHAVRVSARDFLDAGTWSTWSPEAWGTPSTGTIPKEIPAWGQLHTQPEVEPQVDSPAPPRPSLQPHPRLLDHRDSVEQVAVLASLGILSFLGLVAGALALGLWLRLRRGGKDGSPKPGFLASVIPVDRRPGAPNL

T2: hIL-11Rα (Homo sapiens, UniProt Q14626)
T2 sequence (Q14626 23-422): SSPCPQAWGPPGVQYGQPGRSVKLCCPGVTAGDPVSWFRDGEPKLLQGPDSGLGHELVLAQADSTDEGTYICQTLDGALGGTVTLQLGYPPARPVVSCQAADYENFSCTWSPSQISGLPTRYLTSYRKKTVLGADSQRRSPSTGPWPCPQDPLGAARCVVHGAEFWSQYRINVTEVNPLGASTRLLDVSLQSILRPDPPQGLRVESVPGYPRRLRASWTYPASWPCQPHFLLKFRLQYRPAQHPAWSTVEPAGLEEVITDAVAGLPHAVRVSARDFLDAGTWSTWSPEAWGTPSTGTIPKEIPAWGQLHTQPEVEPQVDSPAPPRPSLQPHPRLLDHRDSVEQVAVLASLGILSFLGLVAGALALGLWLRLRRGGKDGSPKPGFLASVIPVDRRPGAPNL


Tests used:
[1] = test system: type VI collagen formation (PRO-C6) in fibrotic human PCLS; experiment: Fibrotic human precision-cut lung slice (PCLS) model, PRO-C6 biomarker of ECM remodeling; format: cell-based; details: 48 hours; for effects on ECM remodeling: fibrotic human PCLS; for median levels of PRO-C6 compared to the no treatment (media) control: pooled data all donors and regions, nintedanib 1 μM, isotype control 30 μg/mL
Protocol: Studies were performed to evaluate the effect of the mAb5 antibody on biomarkers reflecting ECM remodeling in a fibrotic human precision-cut lung slice (PCLS) model. The anti-fibrotic effect was investigated at three different concentrations in human ex vivo lung tissue slices prepared from pulmonary fibrosis patients.
Tissue slices were prepared from the subpleural and central region of the fibrotic lung from two human end-stage donors with pulmonary fibrosis (IPF and secondary fibrosis) (see, for example, Hess et al., Toxicol In Vitro. 32:347-61, 2016). For both donors, lung tissue samples from two different regional areas (subpleural and central) were used to generate tissue cores used for PCLS. Adjacent cores were used to achieve serial PCLS for the analysis of one treatment as compared to medium treated PCLS from the same cores. This enables the comparison of densely packed fibrotic areas with fibrotic foci with less affected areas. To ensure the fibrotic status, clinical/demographic information for each patient is provided.
Each treatment was tested with three replicates for each lung region and for each donor.
Preparation and incubation of precision-cut lung slices. Lung lobes were canuled and filled with 37° C. warm 2% low-melting agarose/medium solution. Filled lobes were cooled on ice to polymerise agarose. Tissue cores with a diameter of 8 mm were prepared and cut into approximately 300 μm thick slices using a microtome (Krumdieck tissue slicer, Alabama Research and Development, Muniford, AL, USA or Vibratome OTS-5000, Science Services GmbH, Munich) in Earle's Balanced Salts Solution (EBSS). Tissue slices were incubated in Dulbecco's modified Eagle's medium/nutrient mixture F-12 Ham (DMEM) with L-glutamine and 15 mM HEPES without phenol red. Tissue slices were transferred into petri dishes and washed with DMEM for 2 hours. Medium was changed four times every 30 minutes in order to remove cell debris.
Two PCLS per well were left over night in 500 μL DMEM in 24-well plates for a final washing step. Next day, PCLS were treated with experimental treatments or controls (see Table E5) in 250 μl DMEM/F-12 culture medium for 48 hours under normal cell culture conditions (37° C., 5% CO2). Medium contained 100 units/mL penicillin and 100 μg/mL streptomycin and was not supplemented with fetal calf serum.
After incubation for 48 hours, supernatants were collected, proteinase inhibitor cocktail (0.2%) was added and samples were frozen to −80° C. Additionally, the two PCLS from each well were transferred to a 2 mL safe-lock tube, snap-frozen in liquid nitrogen immediately, and stored at −80° C. Samples from the three replicates for each condition were not pooled.
Extracellular matrix remodeling evaluation. Biomarkers that reflect ECM remodeling were assessed in supernatant by Nordic Bioscience using the following competitive ELISA: PRO-C6 (C-terminal of type VI collagen C5 domain released as type VI collagen is incorporated into the matrix; measured on mesoscale platform [hsPRO-C6]): Reflects type VI collagen formation. Type VI collagen is a beaded filament collagen mainly found in the interface between the interstitial matrix and the basement membrane.
Statistics. […] Pooled data are presented as percentage of the “no treatment” control, calculated for individual regions and donors. Statistical significant differences were evaluated on pooled data by Kruskal-Wallis with Dunn's multiple comparisons test, comparing to the “no treatment” control. […]

hIL-1 IR [2] = molecular target: T1, hIL-1 IR; experiment: Alternate biolayer interferometry assay (AHC biosensors) ranking mAbs 16-32 against mAb5; format: binding; details: for ka: association 120 s; for kd: dissociation 1200 s; for qualitative assessment: compared to mAb5
Description: A further series of antibodies were designed in which the residue at Kabat position 31 of the heavy chain was varied (mAbs 16-32). In this case an alternate biolayer interferometry assay was used to initially rank the antibodies compared to mAb5, the closest relative in sequence to mAbs 16-32. MAbs were loaded onto anti-human constant domain (AHC) biosensors (FortdBio) in 10× kinetics buffer consisting of PBS, 0.1% BSA, 0.02% Tween 20 for 120 s to achieve a spectral shift value of 0.8 to 1.2 nm. Association was carried out in the presence of 2-fold dilution series of hIL-1 IR and was allowed to proceed for 120 s. Dilution series started 10 nM. The dissociation in 10× kinetics buffer for 1200 s. Binding kinetic measurements were taken on an Octet RED96e instrument.

[3] = test system: IL-11 signaling in STAT3 Reporter (Luciferase)—HEK293 cell line; experiment: Cell-based STAT3 reporter (luciferase) assay for inhibiting IL-11 signaling; parameters: species or system human; details: compared with TS7 and 8E2
Protocol: Further testing of the lead mAbs was carried out using a cell-based reporter assay. IL-11 is reported to signal through the STAT3 and ERK pathways. Therefore, a STAT3 reporter cell line in which firefly luciferase gene expression is driven by STAT3 response elements located upstream of a minimal TATA promoter was selected to analyze mAb functional activity. In these cells, IL-11 can activate the endogenous STAT3 allowing it to bind to the STAT3 response elements, inducing transcription of the luciferase reporter gene and resulting in readily detectable luciferase expression. Antibodies to IL-11R which block IL-11 signaling should inhibit expression of IL-11 driven luciferase in these cells.
The STAT3 Reporter (Luciferase)—HEK293 cell line (BPS Bioscience, catalog #79800-P) was grown, passaged, and assayed as per manufacturer's protocols. Cells were added at 25,000 cells per well in a 96-well microtiter dish and incubated at 37° C. for 30-45 min. in 5% CO2 humidified air. Anti-IL-11R mAbs were added as a 3-fold dilution series in duplicate columns or rows, and plates were returned to the incubator for an additional 1 h at 37° C. after which 40 ng/mL IL-11 was added to each well to initiate the signal transduction cascade and luciferase production. Plates were incubated for 18-24 hours at 37° C. and luciferase was detected using a One-Step Luciferase Assay System (BPS Bioscience, cat. no. 60690-1) as per manufacturer's instructions.

hIL-11Rα = molecular target: T2, hIL-11Rα; experiment: Kinetic binding analysis by biolayer interferometry (protein G biosensors, Octet RED96e)
Protocol: Association was carried out in the presence of a 2-fold dilution series of hIL-11Rα and was allowed to proceed for 120 seconds; dissociation was measured for 300 to 1200 seconds.

hIL-1 IR [4] = molecular target: T1, hIL-1 IR; experiment: Alternate biolayer interferometry assay (AHC biosensors) ranking mAbs 16-32 against mAb5; format: binding; details: compared to mAb5

| Molecule | effects on ECM remodeling [1] | median levels of PRO-C6 compared to the no treatment (media) control ([1]; mAb5 0.3, 3.0, 30 μg/mL) | ka (hIL-1 IR [2]) [M⁻¹ s⁻¹] | kd (hIL-1 IR [2]) | relative potency at inhibiting IL-11 signaling (in words) [3] | dose dependence of PRO-C6 reduction ([1]; mAb5 0.3, 3.0, 30 μg/mL) | binding affinity (in words) (hIL-11Rα; beyond the ability of the instrument to determine an accurate off-rate (kd)) | ka (hIL-11Rα; protein G biosensors, association 120 seconds) [M⁻¹ s⁻¹] | kd (hIL-11Rα; protein G biosensors, dissociation 300 to 1200 seconds) [s⁻¹] | qualitative assessment (hIL-1 IR [2]) | potency by more detailed kinetic measurements (in words) (hIL-1 IR [4]) |
| --- | --- | --- | --- | --- | --- | --- | --- | --- | --- | --- | --- |
| COC(=O)c1ccc2c(c1)NC(=O)/C2=C(\Nc1ccc(N(C)C(=O)CN2CCN(C)CC2)cc1)c1ccccc1 [nintedanib, Nintedanib, reference compound] | ECM remodeling could be reduced | decreased |  |  |  |  |  |  |  |  |  |
| mAb5: anti-IL-11Rα antibody; VH SEQ ID NO: 201, VL SEQ ID NO: 202; human IgG4 (S228P), kappa light chain (antibody, V domains shown, human IgG4 S228P and kappa constant regions; mAb5 VH Chain; mAb5 VL Chain, anti-IL-11Rα antibody; human IgG4 (S228P), kappa light chain) VH: EVQLLESGGGLVQPGGSLRLSCAASGFTFSWYSMTWVRQAPGKGLEWVSSIVPYGDLTQYADSVKGRFTISRDNSKNTLYLQMNSLRAEDTAVYYCAKGPGWGSFDLWGRGTLVTVSS VL: DIQMTQSPSSLSASVGDRVTITCQASQDINNYLNWYQQKPGKAPKLLIYDASNLQTGVPSRFSGSGSGTDFTFTISSLQPEDIATYYCQQHESQSPTFGPGTKVDIK | better effects on ECM remodeling relative to the approved therapy nintedanib | decreased | 490000 | 2.5e-05 s⁻¹ | more potent at inhibiting IL-11 signaling than either of TS7 or 8E2 | dose-dependent manner; also recorded: dose-related reductions | very high binding affinity | 63700 | <1e-07 |  |  |
| mAb21: anti-IL-11Rα antibody; VH SEQ ID NO: 233, VL SEQ ID NO: 234; heavy chain Kabat position 31 variant of mAb5 (antibody, V domains shown, mAb21 VH Chain; mAb21 VL Chain, anti-IL-11Rα antibody; heavy chain Kabat position 31 variant of mAb5) VH: EVQLLESGGGLVQPGGSLRLSCAASGFTFSHYSMTWVRQAPGKGLEWVSSIVPYGDLTQYADSVKGRFTISRDNSKNTLYLQMNSLRAEDTAVYYCAKGPGWGSFDLWGRGTLVTVSS VL: DIQMTQSPSSLSASVGDRVTITCQASQDINNYLNWYQQKPGKAPKLLIYDASNLQTGVPSRFSGSGSGTDFTFTISSLQPEDIATYYCQQHESQSPTFGPGTKVDIK |  |  | 750000 | off-scale |  |  |  |  |  | improved/ | further improved potency |
| mAb23: anti-IL-11Rα antibody; VH SEQ ID NO: 237, VL SEQ ID NO: 238; heavy chain Kabat position 31 variant of mAb5 (antibody, V domains shown, mAb23 VH Chain; mAb23 VL Chain, anti-IL-11Rα antibody; heavy chain Kabat position 31 variant of mAb5) VH: EVQLLESGGGLVQPGGSLRLSCAASGFTFSKYSMTWVRQAPGKGLEWVSSIVPYGDLTQYADSVKGRFTISRDNSKNTLYLQMNSLRAEDTAVYYCAKGPGWGSFDLWGRGTLVTVSS VL: DIQMTQSPSSLSASVGDRVTITCQASQDINNYLNWYQQKPGKAPKLLIYDASNLQTGVPSRFSGSGSGTDFTFTISSLQPEDIATYYCQQHESQSPTFGPGTKVDIK |  |  | 720000 | off-scale |  |  |  |  |  | improved/ | further improved potency |
| mAb29: anti-IL-11Rα antibody; VH SEQ ID NO: 249, VL SEQ ID NO: 250; heavy chain Kabat position 31 variant of mAb5 (antibody, V domains shown, mAb29 VH Chain; mAb29 VL Chain, anti-IL-11Rα antibody; heavy chain Kabat position 31 variant of mAb5) VH: EVQLLESGGGLVQPGGSLRLSCAASGFTFSSYSMTWVRQAPGKGLEWVSSIVPYGDLTQYADSVKGRFTISRDNSKNTLYLQMNSLRAEDTAVYYCAKGPGWGSFDLWGRGTLVTVSS VL: DIQMTQSPSSLSASVGDRVTITCQASQDINNYLNWYQQKPGKAPKLLIYDASNLQTGVPSRFSGSGSGTDFTFTISSLQPEDIATYYCQQHESQSPTFGPGTKVDIK |  |  | 610000 | 1.8e-05 s⁻¹ |  |  |  |  |  | improved/ | further improved potency |
| mAb31: anti-IL-11Rα antibody; VH SEQ ID NO: 253, VL SEQ ID NO: 254; heavy chain Kabat position 31 variant of mAb5 (antibody, V domains shown, mAb31 VH Chain; mAb31 VL Chain, anti-IL-11Rα antibody; heavy chain Kabat position 31 variant of mAb5) VH: EVQLLESGGGLVQPGGSLRLSCAASGFTFSVYSMTWVRQAPGKGLEWVSSIVPYGDLTQYADSVKGRFTISRDNSKNTLYLQMNSLRAEDTAVYYCAKGPGWGSFDLWGRGTLVTVSS VL: DIQMTQSPSSLSASVGDRVTITCQASQDINNYLNWYQQKPGKAPKLLIYDASNLQTGVPSRFSGSGSGTDFTFTISSLQPEDIATYYCQQHESQSPTFGPGTKVDIK |  |  | 690000 | off-scale |  |  |  |  |  | improved/ | further improved potency |
